Data taken from the supplement of paper PMC9170038.

Tested on: K4 kissing-loop RNA reporter
Experiment: apparent KD of K4 kissing-loop reporter; higher = weaker reporter binding
Settings: Eterna round: R107
Description: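 RNA-MaP round R107: designed RNA switches with theophylline, tryptophan, arginine or FMN aptamers are transcribed on-chip within common flanks. They are titrated with a labelled K4 kissing-loop RNA reporter in RNA-MaP buffer (100 mM Tris pH 7.5, 80 mM KCl, 4 mM MgCl2), without ligand or with the indicated ligand. Median apparent KD per design.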

[1] = input ligand: theophylline 20 uM
[2] = input ligand: tryptophan 2.4 mM
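Further: bound reporter read as fluorescence of individual clusters on recovered sequencing chips by microscopy, with normalized cluster intensities fitted with a binding model.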

Sequence: UGUAUGUGAUUUGAUACCAGACCAGCUGAUGGAUCACGAGUGAUGUUCGUGUUGGUUUGGGUCCCUUGGCAGCAAAUCGCAUACU [KL-SSTheoB14]
- apparent KD of K4 kissing-loop reporter (input ligand: FMN 200 uM): 308 nM
- apparent KD of K4 kissing-loop reporter (input ligand: arginine 13.2 mM): 282 nM
- apparent KD of K4 kissing-loop reporter (input ligand: none): 324 nM
- apparent KD of K4 kissing-loop reporter [1]: 248 nM
- apparent KD of K4 kissing-loop reporter [2]: 285 nM

Sequence: AAUAAGGAGUGAUGUUCCAAGUGAUGUUAACGAGGACCGGUACGGCCGCCACUCGAUACGGCCGGAAAGUAAGAUAAACUAAAAU [Same State - Tryptophan A (Freestyle 2)]
- apparent KD of K4 kissing-loop reporter (input ligand: FMN 200 uM): 61 nM
- apparent KD of K4 kissing-loop reporter (input ligand: arginine 13.2 mM): 42.8 nM
- apparent KD of K4 kissing-loop reporter (input ligand: none): 52.3 nM
- apparent KD of K4 kissing-loop reporter [1]: 45.5 nM
- apparent KD of K4 kissing-loop reporter [2]: 47.2 nM

Sequence: AGAAAGAAGGCGGCCGCCACUCUGAUGGGCGAAAGCCCAUUUUUUUAGCAGUGAUGUUGCUUGUUGAGGACCGGGCCAAAGAAAU [2nd]
- apparent KD of K4 kissing-loop reporter (input ligand: FMN 200 uM): 179 nM
- apparent KD of K4 kissing-loop reporter (input ligand: arginine 13.2 mM): 174 nM
- apparent KD of K4 kissing-loop reporter (input ligand: none): 155 nM
- apparent KD of K4 kissing-loop reporter [1]: 193 nM
- apparent KD of K4 kissing-loop reporter [2]: 114 nM

Sequence: UGUACCGAGUCAGGAUAUCGCGUCGAAAGACGAAACGAGUGAUGUUCGAAUCGAUCGAAAGAUCGUCGAGAAGGGACUUGGUACU [FmnBS 22 #SwitchBubble #StaticStem #DoubleMagnetSystem]
- apparent KD of K4 kissing-loop reporter (input ligand: FMN 200 uM): 219 nM
- apparent KD of K4 kissing-loop reporter (input ligand: arginine 13.2 mM): 676 nM
- apparent KD of K4 kissing-loop reporter (input ligand: none): 642 nM
- apparent KD of K4 kissing-loop reporter [1]: 569 nM
- apparent KD of K4 kissing-loop reporter [2]: 589 nM

Sequence: AGUGCCUGCCUUAGCCUUCCCAUCAACUUCCGAGGACCGGUACGGCCGCCACUCGGCCAUCGGGCUAGUGAUGUUACCUGGUGGA [theeternabot_sameState_KL_Trp_A_50]
- apparent KD of K4 kissing-loop reporter (input ligand: FMN 200 uM): 337 nM
- apparent KD of K4 kissing-loop reporter (input ligand: arginine 13.2 mM): 302 nM
- apparent KD of K4 kissing-loop reporter (input ligand: none): 327 nM
- apparent KD of K4 kissing-loop reporter [1]: 320 nM
- apparent KD of K4 kissing-loop reporter [2]: 224 nM

Sequence: CUUCGUAAGGGCCCAGUGAUGUUGGGCACUCGAGGACCGGUACGGCCGCCACUCGCUCCCUAAGUCGCGCGCGUGGGCCACCGCC [Rezariatra]
- apparent KD of K4 kissing-loop reporter (input ligand: FMN 200 uM): 128 nM
- apparent KD of K4 kissing-loop reporter (input ligand: arginine 13.2 mM): 111 nM
- apparent KD of K4 kissing-loop reporter (input ligand: none): 116 nM
- apparent KD of K4 kissing-loop reporter [1]: 102 nM
- apparent KD of K4 kissing-loop reporter [2]: 139 nM

Sequence: UAAUUUAUGUCUUUAAUUUAAUAAUCAGAUACCAGUGAUUUAUGACACCCUUGGCAGCUGUAUUGAGUGAUGUUCUUAUACUUAA [JR_Nu_ExcTheophyA_Sub021]
- apparent KD of K4 kissing-loop reporter (input ligand: FMN 200 uM): 131 nM
- apparent KD of K4 kissing-loop reporter (input ligand: arginine 13.2 mM): 169 nM
- apparent KD of K4 kissing-loop reporter (input ligand: none): 171 nM
- apparent KD of K4 kissing-loop reporter [1]: 212 nM
- apparent KD of K4 kissing-loop reporter [2]: 101 nM

Sequence: UGGAGUUGACGAAAAGUCAACUCCCGAGAAGGAGCGGACGAAAGUCCAGGUAGGUCGCUCACUACCAGUGAUGUUGGUACUAAAA
- apparent KD of K4 kissing-loop reporter (input ligand: FMN 200 uM): 148 nM
- apparent KD of K4 kissing-loop reporter (input ligand: arginine 13.2 mM): 196 nM
- apparent KD of K4 kissing-loop reporter (input ligand: none): 129 nM
- apparent KD of K4 kissing-loop reporter [1]: 135 nM
- apparent KD of K4 kissing-loop reporter [2]: 111 nM

Sequence: CGCCGCAAGGCGAGCGCUCCCACUCCGGAAGGAGCGCCCGAAAGGGCAGGUAGGUCGCCGGAGUGAUGUUCCGGUGGAGGGCUCG [#2 Exclusion - Arginine A Attempt #27 (Inspired by Omei)]
- apparent KD of K4 kissing-loop reporter (input ligand: FMN 200 uM): 379 nM
- apparent KD of K4 kissing-loop reporter (input ligand: arginine 13.2 mM): 185 nM
- apparent KD of K4 kissing-loop reporter (input ligand: none): 432 nM
- apparent KD of K4 kissing-loop reporter [1]: 360 nM
- apparent KD of K4 kissing-loop reporter [2]: 529 nM

Sequence: UUGUAAAAGUCGGCCGCCACUCCGGGCCCUAUAAAUGGGCGCAGUGAUGUUGCGGCUAGGCCUCUGAGGACCGGGACUUUAUAGC [Xeismaarbe]
- apparent KD of K4 kissing-loop reporter (input ligand: FMN 200 uM): 115 nM
- apparent KD of K4 kissing-loop reporter (input ligand: arginine 13.2 mM): 85.1 nM
- apparent KD of K4 kissing-loop reporter (input ligand: none): 125 nM
- apparent KD of K4 kissing-loop reporter [1]: 66.8 nM
- apparent KD of K4 kissing-loop reporter [2]: 201 nM
